Assay results as given in publication PMC6615493, “The Role of Iron and Copper on the Oligomerization Dynamics of DR_2577, the Main S-Layer Protein of Deinococcus radiodurans” (Frontiers in Microbiology, 2019).
“And” between values parts separate entries of the source, which are not always exact repeats. Equal entries are not always repeated.

Molecular target: the molecule itself
Test: SEC; Superose 6 10/300GL, 50 µl protein at 0.2 mg/ml, 0.05% β-DDM; 50 mM phosphate (pH >= 7) or 50 mM Na acetate (pH <= 6); control runs, runs with EDTA, at lower pH and with Cu2+; close-to-native conditions

B1: DR_2577, the main S-layer protein of Deinococcus radiodurans (natural protein, UniProt Q9RRB6 23-1167, looked up)
chain: APVSAPQVPALTDVPAGHWAKDAIDRLVSRGVILGYPDGTFRGTQNLTRYEAAIIIARLLDQMRDGETPAGMTAEDMTALQNAIQELAADLAALGVRVSDLEANAVSKDDFARLEARIEEVAAAGGEQGATEALQGQIDDLTARVDEYDALRADVDDNASSIAALNDLTVLLNQDILDLQDRVSAVEAAQADFVQRSDFDALGGRVTTVETRVETVNNSLTGRIAALERNAFSVKPSLTIGYSVSRTSRNFDVDRLFPLNADGTVANNAFTSGGIDTDTGAQRRDFGDFGNASDPVVAGAAGLYGFADGVSYTVYFTDGSTATFDGLNPADYKVPTGKVIDTTKGRNGFGFNNLARYKEGSTDIGISLGFDTSGQFSQVTSGTGGSLFSTAGRLQVNQIDLNFGLVTGLPSDAYVDTNGNGKKDDGEATGRGTYLGSGGTAAILRDPAGNVYRPVFFRFKNATTQFSVGNNPVIVTLGQQQKFYFSDYVFDNNYDGRGDGFTVTVDGSNVPVIGAWKPQIKGVYGSRSGLDGTAEAGYGVYYRGVRAQITPVGTLTAGIHYAQEGRDMFGAAQNTTSTPSDVTTYGADLHGKAFGVELHSEYATSRVRPNTANAAVQTSNAFYARVATRKDNLAFDLNTPAAKFGNDTFGVSLYDLNYRKIDAGYNNVAGISEYGYGSYSRTSAQNIAYNPDTGVTAPFANLDRQAYTDANNDGTSDRNADGTVVATNTKIGQMGFGVKAAANLGPVAIGGYYDTSTGANGDNANRMTEAGGSAKVAYSIFSLRGTYNTLDSNRPQIYRDAAGTQIIGDAKVRRYAVQADVTPGLGLFVGAYYRDVNVNGVRSTTDRGLLGRGYLASSFEPGVGNNAYRTGLRCADNNFGTGTRDIDGVGGVLNPAVNLDQSRTATCFTSYGVEAGHAGDNANALVKDLFFRVGYSRVYVPTTATATTGDFSGSVTYGDARYDRKVGVANVRLAGSFSTTNTQLDSRPAGTRGAVGLIVRTDPLENVPFRPQFNGQVGYYTADNRVAAGNYNANATKYGAGVVLNDFLLPQTKIGVRYDGYMAQNRQYTPFDGDGTQGYFSDANNNRRTNLNGVYVEGAYQDLIFSYGTYTLSQKDLNGVEYGSGINNGQPARGQTFKISYKVNF
notes: DR_2577 (SlpA), main S-layer protein of Deinococcus radiodurans strain R1; The introduction describes it as a homo-hexamer of ~760 kDa (trimer of dimers); the dimers are said (cited work) to be held by intermolecular disulfide bonds; also called SlpA
stoichiometry N: 6 and 2
